Each block holds one binder with its values, some of them ahead of it.
What was measured:
[1] = biological target: T1, rHuman HGF R/c-MET/Fc Chimera, CF (R&D Systems Cat#358-MT/CF) (human, UniProt P08581 25-932); assay: MSD ECL multi-spot plate; Fab 2.0 nM; blank spot 316
T1 construct: also called HGF R/Fc; hepatocyte growth factor receptor; Fc part of the bought chimera not given

[2] = biological target: T2, rHuman IGF-1 sR, (IGF-1 sR), CF (R&D Systems Cat#391-GR) (human, UniProt P08069 31-932); assay: as above
T2 construct: also called insulin-like growth factor-1 soluble receptor; IGF-R1

[3] = biological target: T3, rHuman EGF R/Fc Chimera, CF (R&D Systems Cat#344-ER) (human, UniProt P00533 25-645); assay: as above
T3 construct: also called epidermal growth factor receptor; Fc part of the bought chimera not given

[4] = biological target: T4, rHuman Erythropoietin R/Fc Chimera, CF (R&D Systems Cat#963-ER) (human, UniProt P19235 25-250); assay: as above
T4 construct: also called EPO R/Fc; Epo R; Fc part of the bought chimera not given
T4 sequence: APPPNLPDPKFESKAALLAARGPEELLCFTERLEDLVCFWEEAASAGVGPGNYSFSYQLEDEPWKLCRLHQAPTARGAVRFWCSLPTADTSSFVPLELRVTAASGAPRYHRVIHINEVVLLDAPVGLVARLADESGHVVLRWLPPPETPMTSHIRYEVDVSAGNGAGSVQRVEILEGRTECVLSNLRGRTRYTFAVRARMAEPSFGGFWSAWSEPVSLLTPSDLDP

[5] = biological target: T5, rHuman ErbB2/Fc Chimera, CF (R&D Systems Cat#1129-ER) (human, UniProt P04626 23-652); assay: as above
T5 construct: also called HER2/neu; human epidermal growth factor 2 receptor; Fc part of the bought chimera not given

[6] = biological target: T6, Recombinant Human DLL4 (R&D Systems Cat#1506-D4/CF) (human, UniProt Q9NR61 27-524); assay: as above
T6 construct: also called delta-like protein 4

[7] = biological target: T7, rHuman Erythropoietin R/Fc Chimera, CF (R&D Systems Cat#963-ER) (human, UniProt P19235 25-250); assay: MSD ECL titration, Fab 0.1 nM, blank 201
T7 construct: Bought Fc chimera; also called EPO R/Fc; EPOR; Fc part of the bought chimera not given
T7 sequence: T4 sequence

[8] = biological target: T8, rHuman ErbB2/Fc Chimera, CF (R&D Systems Cat#1129-ER) (human, UniProt P04626 23-652); assay: MSD ECL titration, Fab 0.1 nM, blank 201
T8 construct: Bought Fc chimera; also called HER2/neu; Fc part of the bought chimera not given

[9] = biological target: T9, Recombinant Human DLL4 (R&D Systems Cat#1506-D4/CF) (human, UniProt Q9NR61 27-524); assay: MSD ECL titration, Fab 0.1 nM, blank 201
T9 construct: Bought recombinant protein; also called rHuman DLL4; delta-like protein 4

[10] = biological target: T10, rHuman P-Cadherin/Fc Chimera, CF (R&D Systems Cat#861-PC) (human, UniProt P22223 108-654); assay: MSD ECL titration, Fab 0.1 nM, blank 201
T10 construct: Bought Fc chimera; Fc part of the bought chimera not given

[11] = biological target: T11, rHuman IGF-1 sR (insulin-like growth factor-1 soluble receptor), CF (R&D Systems Cat#391-GR) (human, UniProt P08069 31-932); assay: MSD ECL titration, Fab 0.1 nM, blank 201
T11 construct: Bought soluble receptor; also called IGF-R1

[12] = biological target: T12, rHuman EGF R/Fc Chimera, CF (R&D Systems Cat#344-ER) (human, UniProt P00533 25-645); assay: MSD ECL titration, Fab 0.1 nM, blank 201
T12 construct: Bought Fc chimera; Fc part of the bought chimera not given

[13] = biological target: T13, rHuman HGF R/c-MET/Fc Chimera, CF (R&D Systems Cat#358-MT/CF) (human, UniProt P08581 25-932); assay: MSD ECL titration, Fab 2.3 nM, blank 234
T13 construct: Bought Fc chimera; also called HGF R/Fc; Fc part of the bought chimera not given

[14] = biological target: T7, rHuman Erythropoietin R/Fc Chimera, CF …; assay: MSD ECL titration, Fab 2.3 nM, blank 234
[15] = biological target: T8, rHuman ErbB2/Fc Chimera, CF (R&D …); assay: MSD ECL titration, Fab 2.3 nM, blank 234
[16] = biological target: T14, rHuman CD44/Fc Chimera, CF (R&D Systems Cat#3660-CD) (human, UniProt P16070 21-220); assay: MSD ECL titration, Fab 2.3 nM, blank 234
T14 construct: Bought Fc chimera; Fc part of the bought chimera not given

[17] = biological target: T9, Recombinant Human DLL4 (R&D Systems …); assay: MSD ECL titration, Fab 2.3 nM, blank 234
[18] = biological target: T15, rHuman Notch-1/Fc Chimera, CF (R&D Systems Cat#3647-TK) (human, UniProt P46531 19-526); assay: MSD ECL titration, Fab 2.3 nM, blank 234
T15 construct: Bought Fc chimera; Fc part of the bought chimera not given

[19] = biological target: T10, rHuman P-Cadherin/Fc Chimera, CF (R&D …); assay: MSD ECL titration, Fab 2.3 nM, blank 234
[20] = biological target: T11, rHuman IGF-1 sR (insulin-like growth …); assay: MSD ECL titration, Fab 2.3 nM, blank 234
[21] = biological target: T12, rHuman EGF R/Fc Chimera, CF (R&D …); assay: MSD ECL titration, Fab 2.3 nM, blank 234
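Note: blank spot per well as comparator with Hit at signal to blank ratio of 4 or more.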

ECL signal [1]: 356 ECL signal | ECL signal [2]: 367 ECL signal | ECL signal [3]: 424 ECL signal | ECL signal [4]: 433 ECL signal | ECL signal [5]: 382 ECL signal | ECL signal [6]: 605 ECL signal
B1: Fab VH1-8_IGHD2-2*01_IGHJ6*01 & L12_IGKJ1*01 (Fab, V domains shown)
VH: QVQLVQSGAEVKKPGASVKVSCKASGYTFTSYDINWVRQATGQGLEWMGWMNPNSGNTGYAQKFQGRVTMTRNTSISTAYMELSSLRSEDTAVYYCARGGYCSSTSCYADYYYYYGMDVWGQGTTVTVSS
VL: not shown

ECL signal [7]: 373 | ECL signal [8]: 306 | ECL signal [9]: 317 | ECL signal [10]: 235 | ECL signal [11]: 241 | ECL signal [12]: 311 | ECL signal [13]: 253 | ECL signal [14]: 429 | ECL signal [15]: 291 | ECL signal [16]: 317 | ECL signal [17]: 3060 | ECL signal [18]: 333 | ECL signal [19]: 401 | ECL signal [20]: 231 | ECL signal [21]: 289
B2: Fab VH1-46_IGHD6-6*01_IGHJ1*01 & L6_IGKJ1*01 (Fab, V domains shown)
VH: QVQLVQSGAEVKKPGASVKVSCKASGYTFTSYYMHWVRQAPGQGLEWMGIINPSGGSTSYAQKFQGRVTMTRDTSTSTVYMELSSLRSEDTAVYYCAREEYSSSSAEYFQHWGQGTLVTVSS
VL: not shown
notes: Expressed in E. coli as Fab: heavy chain with CH1 plus Flag and His tags from Plasmid A, kappa light chain constant region from Plasmid C; also called Fab No. 1

Source: patent US20120058906A1 (published 2012)
